Experimental findings from article PMC5037460, “The structure of a furin-antibody complex explains non-competitive inhibition by steric exclusion of substrate conformers” (Scientific Reports, 2016) are described below.

Test [1] addresses T1, human furin, wild type (Homo sapiens).
T1 construct: furin, human; also called Furin^WT; source: purified
T1 chain: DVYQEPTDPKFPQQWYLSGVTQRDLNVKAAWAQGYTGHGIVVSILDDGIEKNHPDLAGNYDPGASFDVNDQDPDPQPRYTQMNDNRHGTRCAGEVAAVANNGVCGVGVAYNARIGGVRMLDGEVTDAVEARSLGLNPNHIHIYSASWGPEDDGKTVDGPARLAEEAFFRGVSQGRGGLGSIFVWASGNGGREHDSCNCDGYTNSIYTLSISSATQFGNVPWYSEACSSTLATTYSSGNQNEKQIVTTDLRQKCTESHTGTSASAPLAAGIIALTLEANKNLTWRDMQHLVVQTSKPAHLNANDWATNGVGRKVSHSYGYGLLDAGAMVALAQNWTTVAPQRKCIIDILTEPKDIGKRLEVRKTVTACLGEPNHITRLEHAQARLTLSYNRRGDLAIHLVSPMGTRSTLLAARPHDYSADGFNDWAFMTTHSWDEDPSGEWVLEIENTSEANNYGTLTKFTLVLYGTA
The test is described as follows: SEC; analytical gel permeation chromatography, Superdex 200 5/150 GL, 10 mM Hepes, pH 7.5, 100 mM NaCl, 1 mM CaCl2; proteins premixed at equimolar ratio, ~23 μM each; 0.2 ml/min; peak fractions by SDS-PAGE. The following applies: both partners purified.

Test [2] has as its target T2, dec-RVKR-CMK-inhibited human furin (Homo sapiens, covalently inhibited by decanoyl-RVKR-chloromethylketone (dec-RVKR-CMK)).
T2 construct: furin, human; also called furin:RVKR-CMK; source: purified, complex with Nb14 purified by GPC
T2 chain: T1 chain
The experiment in a line: crystal structure; furin:RVKR-CMK:Nb14 complex (~9 mg/ml in 10 mM Hepes, pH 7.5, 100 mM NaCl, 2 mM CaCl2) crystallised in 0.1 M sodium acetate, pH 5.6, 16-18% PEG 3350; two copies of the complex in the asymmetric unit. The settings on record: both partners purified.

B1: inhibitory camelid antibody Nb14 (VHH)
VHH: QVQLQESGGGLVQPGGSLTLSCAASGFTFSSYSMYWVRQAPGKGLEWVSSINRVGSNTDYADSVKGRFTISRDNAKNTLYLQMNSLKSEDTALYYCAVGMYAAPPWRGQGTQVTVSS
notes: they are in the deposited structures PDB 5JMO (complex with furin) and PDB 5JMR (free Nb14); also called nanobody Nb14; source: purification in Supplementary Information
B1: the binding result in test [1] and in test [2] was “binds” each time.
